Results on seven molecules are retold here after patent publication US20130101595A1 (AbbVie / Abbott, published 2013).

Broadly, the kon is the second-order rate constant of association. In general, Kd refers to a measure of binding affinity in units of concentration. The term koff denotes the first-order rate constant of dissociation.

Residue numbers refer to the chain shown, from its start. In names and notes the source's numbering stands.

For assay [1], the target named is T1, IL-18 peptide PLFEDMTDSDCRDNA (SEQ ID NO: 1) (human).
T1 peptide: PLFEDMTDSDCRDNA
Briefly: told in a figure legend; 2E1 selected by phage display on an IL-18 peptide epitope.

Assay [2] concerns the target T2, recombinant human IL-18 (rhIL-18) (human, UniProt Q14116 37-193, biotinylated (D-biotinyl-epsilon-aminocaproic acid NHS ester, 2:1 molar ratio of biotin to rhIL-18) in the BIAcore assay; not said to be biotinylated in the KG-1 assay).
T2 construct: also called full length human IL-18; biotinylated rhIL-18
Briefly: SPR (BIAcore), biotinylated rhIL-18 on streptavidin chip, antibody in solution. The protocol:
Real-time binding interactions between ligand (biotinylated recombinant human IL-18 (rhIL-18) immobilized on a biosensor matrix) and analyte (antibodies in solution) were measured by surface plasmon resonance (SPR) using the BIAcore system (Pharmacia Biosensor, Piscataway, N.J.). The system utilizes the optical properties of SPR to detect alterations in protein concentrations within a dextran biosensor matrix. Proteins are covalently bound to the dextran matrix at known concentrations. Antibodies are injected through the dextran matrix and specific binding between injected antibodies and immobilized ligand results in an increased matrix protein concentration and resultant change in the SPR signal.
Biotinylated rhIL-18 to be immobilized on the matrix via streptavidin was diluted in PBS running buffer (Gibco Cat. No. 14190-144, Gibco BRL, Grand Island, N.Y.) supplemented with 0.05% (BIAcore) surfactant P20 (Pharmacia BR-1000-54, Pharmacia Biosensor, Piscataway, N.J.). To determine the capacity of rhIL-18-specific antibodies to bind immobilized rhIL-18, a binding assay was conducted as follows. Aliquots of biotinylated rhIL-18 (25 nM; 10 μl aliquots) were injected through the streptavidin-coupled dextran matrix at a flow rate of 5 μl/min. Before injection of the protein and immediately afterward, PBS buffer alone flowed through each flow cell. The net difference in signal between baseline and approximately 30 sec. after completion of biotinylated rhIL-18 injection was taken to represent the binding value. Direct rhIL-18-specific antibody binding to immobilized biotinylated rhIL-18 was measured. Antibodies (20 μg/ml) were diluted in PBS running buffer and 25 μl aliquots were injected through the immobilized protein matrices at a flow rate of 5 μl/min. Prior to injection of antibody, and immediately afterwards, PBS buffer alone flowed through each flow cell. The net difference in baseline signal and signal after completion of antibody injection was taken to represent the binding value of the particular sample. Biosensor matrices were regenerated using 100 mM HCl before injection of the next sample.

Assay [3] addresses T2, recombinant human IL-18 (rhIL-18). Put plainly: cell-based or functional assay.
The target in assay [4] is T3, IL-18 peptide NRPLFEDMTDSDCR (SEQ ID NO: 36) (human).
T3 peptide: NRPLFEDMTDSDCR
Briefly: overlapping IL-18 peptide panel.

Assay [5] concerns the target T2, recombinant human IL-18 (rhIL-18). Briefly: SPR (BIAcore), biotinylated rhIL-18, scFv. Background: Surface plasmon resonance follows binding to a sensor surface in real time, without labels.
Assay [6] has the same target. Put plainly: cell-based or functional assay. This is another data set of the same source.
Assay [7] shares this target. Put plainly: SPR (BIAcore), biotinylated rhIL-18 on streptavidin chip.

B1: 2E1 (parent) ScFv (scFv, V domains shown)
VH: QVQLVQSGAEVKKPGASMKVSCKTSGYTFTGYYIHWVRQAHGQGFEWIGRLNPTTGDANFAEKFQGRVALTRDTSISTAYLQLDSLKSDDTAVYYCAGKEGAWGQGTLVTVSS
VL: SSELTQDPAVSVALGQTVRITCQGDSLRHFYPNWYQQKPGQAPVLVIYGKNNRPSGIPDRFSGSGSGNTGSLTITGAQAEDEADYYCGSRDSSGIHVVFGGGTKVTVLG
notes: Tested as single-chain Fv; also called single chain Fv version of antibody 2E1; 2E1 single chain antibody
For B1, the binding result in assay [1] and in assay [4] was “binds” each time. Also, in assay [2], the kon is 2600 M⁻¹ s⁻¹. The “IC50 Value, KG-1 cell-based IL-18 neutralization assay (hIFN-gamma)” value (“IC50 Value” for short) in assay [3] amounted to 0.033 µM.

B2: 2E1 mutant L34S + H53R (2E1RS) (scFv, V domains shown)
VH: B1 VH with T54R
VL: B1 VL with N33S
For the molecule B2, in assay [2], the Kd amounted to 0.023 µM, the koff worked out at 6.82e-05 s⁻¹ and the kon came out at 2700 M⁻¹ s⁻¹. Moreover, in assay [5], the “fold improvement over the parent antibody 2E1” value was > 10 fold. In addition, the “IC50 Value” value in assay [3] is 0.003 µM. Moreover, the “fold improvement over the parent antibody 2E1, KG-1 cell-based assay” value in assay [6] was > 10 fold. The “fold improvement over the parent antibody 2E1 (BIAcore analysis)” value in assay [7] is > 10 fold.

B3: 2E1 mutant L34S + H53R + H58Q (scFv, V domains shown)
VH: B1 VH with T54R, N59Q
VL: B1 VL with N33S
As for B3, the koff in assay [2] was found to be 6.18e-05 s⁻¹. In assay [3], the “IC50 Value” value turned out to be 0.0028 µM.

B4: 2E1 (parent) IgG (antibody, V domains shown)
VH: B1 VH
VL: B1 VL
For the molecule B4, the “IC50 Value” value in assay [3] came to 0.0009 µM.

B5: 2E1 mutant L34S (scFv, V domains shown)
VH: B1 VH
VL: B1 VL with N33S
Turning to B5, the koff in assay [2] is 0.000169 s⁻¹. The “IC50 Value” value in assay [3] amounted to 0.015 µM.

B6: 2E1 mutant H53R (scFv, V domains shown)
VH: B1 VH with T54R
VL: B1 VL
Regarding B6, the koff in assay [2] is 0.00234 s⁻¹. Moreover, in assay [3], the “IC50 Value” value worked out at 0.025 µM.

B7: 2E1 mutant L34S + H53Y (scFv, V domains shown)
VH: B1 VH with T54Y
VL: B1 VL with N33S
As to B7, in assay [2], the koff was determined as 5.28e-05 s⁻¹. For the same molecule, the “IC50 Value” value in assay [3] is 0.0067 µM.
